Experimental data: publication PMC10786891, “Massively parallel profiling of RNA-targeting CRISPR-Cas13d”
Residue numbers refer to the chain shown, from its start. Numbers in names are those of the source.

T1: EsCas13d, nuclease-dead (Eubacterium siraeum, UniProt B0MS50, R295A;H300A;R849A;H854A)
T1 sequence: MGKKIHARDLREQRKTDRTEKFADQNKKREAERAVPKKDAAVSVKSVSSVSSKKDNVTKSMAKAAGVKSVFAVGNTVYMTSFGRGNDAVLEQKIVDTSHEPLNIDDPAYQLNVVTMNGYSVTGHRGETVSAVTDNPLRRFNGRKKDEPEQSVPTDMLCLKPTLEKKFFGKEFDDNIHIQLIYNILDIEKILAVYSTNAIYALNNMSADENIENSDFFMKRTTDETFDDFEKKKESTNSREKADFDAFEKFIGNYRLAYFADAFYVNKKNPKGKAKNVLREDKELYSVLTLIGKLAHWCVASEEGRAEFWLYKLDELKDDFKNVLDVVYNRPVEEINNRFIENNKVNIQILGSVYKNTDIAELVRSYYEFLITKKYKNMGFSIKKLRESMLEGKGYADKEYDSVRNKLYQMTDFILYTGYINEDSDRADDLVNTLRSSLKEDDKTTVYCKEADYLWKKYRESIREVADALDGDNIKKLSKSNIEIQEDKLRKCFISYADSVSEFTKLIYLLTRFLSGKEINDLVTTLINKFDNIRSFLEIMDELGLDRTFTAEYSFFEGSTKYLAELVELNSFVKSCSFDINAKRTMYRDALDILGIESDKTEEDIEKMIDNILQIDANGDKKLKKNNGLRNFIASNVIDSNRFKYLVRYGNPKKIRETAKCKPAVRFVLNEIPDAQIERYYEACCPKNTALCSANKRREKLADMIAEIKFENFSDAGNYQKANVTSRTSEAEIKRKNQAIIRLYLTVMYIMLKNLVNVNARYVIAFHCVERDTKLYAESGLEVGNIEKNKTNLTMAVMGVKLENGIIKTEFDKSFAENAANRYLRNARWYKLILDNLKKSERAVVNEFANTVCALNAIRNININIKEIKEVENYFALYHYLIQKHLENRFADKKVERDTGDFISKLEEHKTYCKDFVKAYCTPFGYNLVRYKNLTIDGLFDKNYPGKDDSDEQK

B1: target 1 insG 3' of 9,insC 3' of 1 (mixed)
RNA 1: CACCCGUGCAAAAAUGCAGGGGUCUAAAACUGAGCGGAUAACCUCUCUAUGG
RNA 2: GGGAAUGGAUCCACAUCUACGAAUUCGUACCAUAGAGAGGUUAGUCCGCUCACCCGAGAUCGGAAGAGCACACGU
B2: target 1 G13C,C22U (mixed)
RNA 1: B1 RNA 1
RNA 2: GGGAAUGGAUCCACAUCUACGAAUUCGUAUCAUAGAGACGUUAUCCGCUCACCGAGAUCGGAAGAGCACACGU
B3: target 1 insC 3' of 14,insA 3' of 7 (mixed)
RNA 1: B1 RNA 1
RNA 2: GGGAAUGGAUCCACAUCUACGAAUUCGUACCAUAGAGACGGUUAUCACGCUCACCGAGAUCGGAAGAGCACACGU
B4: target 1 insA 3' of 19,insA 3' of 4 (mixed)
RNA 1: B1 RNA 1
RNA 2: B3 RNA 2 with G35A, A36G, G37A, A38G, C39A, A47C, C48G, G49C, C50A
B5: target 1 insU 3' of 13,insU 3' of 7 (mixed)
RNA 1: B1 RNA 1
RNA 2: B3 RNA 2 with C39G, G40U, A47U
B6: target 1 U11G,C22A (mixed)
RNA 1: B1 RNA 1
RNA 2: B2 RNA 2 with U30A, C39G, U41G
B7: target 1 insC 3' of 19,insC 3' of 13 (mixed)
RNA 1: B1 RNA 1
RNA 2: GGGAAUGGAUCCACAUCUACGAAUUCGUACCAUCAGAGAGCGUUAUCCGCUCACCGAGAUCGGAAGAGCACACGU
B8: target 1 insG 3' of 19,insA 3' of 7 (mixed)
RNA 1: B1 RNA 1
RNA 2: B3 RNA 2 with A34G, G35A, A36G, G37A, A38G, C39A
B9: target 1 C7A,A16C (mixed)
RNA 1: B1 RNA 1
RNA 2: B2 RNA 2 with U30C, A36C, C39G, C45A
B10: target 1 U10C,U19A (mixed)
RNA 1: B1 RNA 1
RNA 2: B2 RNA 2 with U30C, U33A, C39G, U42C
B11: target 1 insG 3' of 8,insG 3' of 2 (mixed)
RNA 1: B1 RNA 1
RNA 2: B1 RNA 2 with G44U, U45G, A52G, C53A
B12: target 1 insC 3' of 18,insG 3' of 7 (mixed)
RNA 1: B1 RNA 1
RNA 2: B3 RNA 2 with G35C, A36G, G37A, A38G, C39A, A47G
B13: target 1 insG 3' of 14,insC 3' of 5 (mixed)
RNA 1: B1 RNA 1
RNA 2: B3 RNA 2 with C39G, A47C, C48G, G49C
B14: target 1 insC 3' of 14,insA 3' of 8 (mixed)
RNA 1: B1 RNA 1
RNA 2: B3 RNA 2 with C46A, A47C
B15: target 1 C7G,U8G (mixed)
RNA 1: B1 RNA 1
RNA 2: B2 RNA 2 with U30C, C39G, U44G, C45G
B16: target 1 U3A,U11G (mixed)
RNA 1: B1 RNA 1
RNA 2: B2 RNA 2 with U30C, C39G, U41G, U49A
B17: target 1 C2A,C6A (mixed)
RNA 1: B1 RNA 1
RNA 2: B2 RNA 2 with U30C, C39G, C46A, C50A
B18: target 1 insA 3' of 7 (mixed)
RNA 1: B1 RNA 1
RNA 2: GGGAAUGGAUCCACAUCUACGAAUUCGUACCAUAGAGAGGUUAUCACGCUCACCGAGAUCGGAAGAGCACACGU
B19: target 1 U11C,G15A (mixed)
RNA 1: B1 RNA 1
RNA 2: B2 RNA 2 with U30C, G37A, C39G, U41C
B20: target 1 insA 3' of 3,insC 3' of 1 (mixed)
RNA 1: B1 RNA 1
RNA 2: B1 RNA 2 with G44U, U45C, C47G, G48C, C49U, U50A
B21: target 1 insA 3' of 3,insU 3' of 1 (mixed)
RNA 1: B1 RNA 1
RNA 2: B1 RNA 2 with G44U, U45C, C47G, G48C, C49U, U50A, C53U
B22: target 1 insU 3' of 17,insA 3' of 12 (mixed)
RNA 1: B1 RNA 1
RNA 2: B7 RNA 2 with C34A, A35G, G36U, C41G, G42A
B23: target 1 insA 3' of 22,insA 3' of 8 (mixed)
RNA 1: B1 RNA 1
RNA 2: B7 RNA 2 with C31A, A32C, U33A, C34U, C41G, G42U, U44A, A45U, U46A
B24: target 1 insC 3' of 17,insA 3' of 3 (mixed)
RNA 1: B1 RNA 1
RNA 2: B3 RNA 2 with A36C, G37A, A38G, C39A, A47C, C48G, G49C, C50U, U51A
B25: target 1 insA 3' of 3,insG 3' of 1 (mixed)
RNA 1: B1 RNA 1
RNA 2: B1 RNA 2 with G44U, U45C, C47G, G48C, C49U, U50A, C53G
B26: target 1 insU 3' of 14,insA 3' of 7 (mixed)
RNA 1: B1 RNA 1
RNA 2: B3 RNA 2 with C39U
B27: target 1 C4G,A14G (mixed)
RNA 1: B1 RNA 1
RNA 2: B2 RNA 2 with U30C, A38G, C39G, C48G
B28: target 1 insG 3' of 19,insC 3' of 3 (mixed)
RNA 1: B1 RNA 1
RNA 2: GGGAAUGGAUCCACAUCUACGAAUUCGUACCAUGAGAGAGGUUAUCCGCUCCACCGAGAUCGGAAGAGCACACGU
B29: target 1 insU 3' of 13 (mixed)
RNA 1: B1 RNA 1
RNA 2: B18 RNA 2 with G40U, U41G, A43U, U44A, C45U, A46C
B30: target 1 insC 3' of 11,insG 3' of 8 (mixed)
RNA 1: B1 RNA 1
RNA 2: B3 RNA 2 with C39G, G41U, U42C, C46G, A47C
B31: target 1 G17U,U19A (mixed)
RNA 1: B1 RNA 1
RNA 2: B2 RNA 2 with U30C, U33A, G35U, C39G
B32: target 1 insC 3' of 20,insA 3' of 17 (mixed)
RNA 1: B1 RNA 1
RNA 2: B7 RNA 2 with U33C, C34U, G38A, A39G, G40A, C41G
B33: target 1 C2U,C21A (mixed)
RNA 1: B1 RNA 1
RNA 2: B2 RNA 2 with U30C, C31A, C39G, C50U
B34: target 1 insG 3' of 18,insA 3' of 13 (mixed)
RNA 1: B1 RNA 1
RNA 2: B7 RNA 2 with C34A, A35G, C41A

target: T1, EsCas13d, nuclease-dead; assay: crRNA (strand 1, pre-loaded); Mg2+; 40 mM Tris-HCl pH 7.5, 150 mM NaCl, 6 mM MgCl2, 1 mM DTT, 0.1% Tween-20, 0.2 mg/ml BSA; 25 C; 10 min per concentration, then washed; details: tags: His6-TwinStrep-SUMO cleaved; N-terminal SNAP kept (SNAP-Surface 488); label: 3' end held by stalled T7 RNA polymerase

Binder	Kd [nM]
B1	17.4 ± 1.2
B2	62 ± 19
B3	47 ± 10
B4	16 ± 1.3
B5	13.7 ± 0.8
B6	39 ± 8
B7	49 ± 15
B8	36.7 ± 2.9
B9	56.1 ± 2.7
B10	100 ± 40
B11	13.1 ± 0.6
B12	36.8 ± 2.2
B13	12.1 ± 1
B14	49 ± 5
B15	11.5 ± 0.9
B16	12.2 ± 0.7
B17	4.84 ± 0.28

Binder	Kd [nM]
B18	5.49 ± 0.21
B19	27 ± 3.3
B20	23 ± 4
B21	9.2 ± 0.5
B22	37 ± 6
B23	20.9 ± 1.3
B24	53 ± 8
B25	5.69 ± 0.25
B26	32.2 ± 3
B27	13.2 ± 1.2
B28	62 ± 8
B29	11.4 ± 1.5
B30	64 ± 8
B31	36.8 ± 2.9
B32	8.5 ± 0.8
B33	28.1 ± 3.1
B34	46 ± 6
